Switch fluorescence ratio data for 78 sequences are collected here from the supplement of paper PMC10126150.

± gives the standard deviation of the averaged measurements.
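Further: ATP exposure 15 min at 22 °C before imaging.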

The subject of this data set is ATP. Put plainly: switch fluorescence ratio, 500 uM ATP over buffer (Cy3 cluster intensity, sum of 5 cycles each) (fold (ratio)); higher = stronger signal-on switching upon ATP binding; sequences stand for … in TCGTCGGCAGCGTCAGATGTGTATAAGAGACAGTTTTTTTTTTTTTTTTTTTTTTTTT…TC. Particulars: aptamer strand: ATP DNA aptamer (quencher-CACCTGGGGGAGTATTGCGGAGGAAGG + anchor), 100 nM annealed; ATP concentration: 500 uM. In a few lines:
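For every switch-domain sequence, the fluorescence ratio is the mean of per-cluster values, each being summed target-cycle Cy3 intensity over summed buffer-cycle Cy3 intensity. Clusters outside 100-1000 RFU were excluded. On a modified Illumina MiSeq flow-cell, the Cy3-labelled switching-strand clusters were annealed to 100 nM quencher-labelled ATP aptamer, imaged in selection buffer and then after 15 min with 500 uM ATP at 22 °C. Five such cycles were run, with NaOH stripping and re-annealing between them.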
For GGCACGGGGC, the switch fluorescence ratio turned out to be 1.02 ± 0.024. For ATATGTGTTT, the switch fluorescence ratio worked out at 1.05 ± 0.018.

Regarding AAAAGGGTTA, the switch fluorescence ratio was found to be 0.9976 ± 0.004. Take CTGGAATAGC: the switch fluorescence ratio was 2.21 ± 0.3. In the case of TCCCTGGGGG it was 1.08 ± 0.11; in that of GGGAATTAAG, 0.989 ± 0.032; in that of ATATTTGTGG, 0.9843 ± 0.0088.

As to TTAAGGTCGG, the switch fluorescence ratio turned out to be 1 ± 0.012.

For the sequence TATGGAAGCA, the switch fluorescence ratio is 0.994 ± 0.014. In the case of AAAGGTATTC it was 1 ± 0.02.

Consider TTGGGGACGG, for which the switch fluorescence ratio amounted to 1 ± 0.038. The figure for AACCTTTTGG is 1.03 ± 0.048; for TGGGGGTATC it is 0.978 ± 0.024. As for AATAGTTTAG, the switch fluorescence ratio was 0.9918 ± 0.0035. Take TTGAGGGTCC: the switch fluorescence ratio stood at 1.004 ± 0.0056. With GAGTGAATTT, the switch fluorescence ratio worked out at 1.0074 ± 0.00014.

As to CCATTTTTGC, the switch fluorescence ratio worked out at 1 ± 0.022. With TAGTTTTAAA, the switch fluorescence ratio turned out to be 1.02 ± 0.044. In the case of CGATTTAGCT it was 0.988 ± 0.037. Consider GTGGGCGGCG, for which the switch fluorescence ratio came to 1.02 ± 0.064. In the case of ATTCGTGCGC it was 1.071 ± 0.0046; in that of GTTTGGTATT, 1.01 ± 0.04. The figure for TGGGGGTCGC is 1.01 ± 0.019; for GATTTTGTCT it is 0.9923 ± 0.0099. For the sequence TTTTTGGAGA, the switch fluorescence ratio worked out at 0.994 ± 0.025. As to ACGCATTACA, the switch fluorescence ratio was found to be 3.9 ± 1.6. For ACCAAGTTGG, the switch fluorescence ratio was 0.993 ± 0.016. As for AGTAGGGTGG, the switch fluorescence ratio came out at 0.991 ± 0.032. Regarding GAGAAAGTGG, the switch fluorescence ratio is 0.9924 ± 0.001.

On to TTTGTCCATG, for which the switch fluorescence ratio was found to be 0.996 ± 0.055. The figure for CCCCCACTGG is 1.1 ± 0.15; for GCTAGTGGC it is 0.985 ± 0.079. Turning to TAATTTCTGC, the switch fluorescence ratio is 0.993 ± 0.018. In the case of ATTTATTCCT, the switch fluorescence ratio turned out to be 1.05 ± 0.015. As for TATTTCTTTT, the switch fluorescence ratio is 1.05 ± 0.11. For the sequence AATCTGGGGC, the switch fluorescence ratio was 0.968 ± 0.011. ATATGATGTG: the switch fluorescence ratio was 1.01 ± 0.03. As for GGGGTGCCAA, the switch fluorescence ratio came out at 0.975 ± 0.067.

With CGCGAGAATA, the switch fluorescence ratio is 1.01 ± 0.084.

As for GGGGTATCAT, the switch fluorescence ratio is 0.983 ± 0.03.

For AGAAGCTGGG, the switch fluorescence ratio worked out at 1 ± 0.03. The figure for CGTAGCACAG is 1.3067 ± 0.0013.

As to ACTCCTAACC, the switch fluorescence ratio was 1.26 ± 0.047.

As to TCGGAGCTTC, the switch fluorescence ratio turned out to be 4.06 ± 1.4.

With ATTTGTTTTT, the switch fluorescence ratio stood at 0.978 ± 0.01. Turning to TAGGGTTCGC, the switch fluorescence ratio turned out to be 1.06 ± 0.082.

As to GGGCGGGGAA, the switch fluorescence ratio was 1.03 ± 0.035.

For GAGGCGTCAA, the switch fluorescence ratio is 0.997 ± 0.027.

With AATTCGTATC, the switch fluorescence ratio came out at 1.008 ± 0.0024. The figure for GATTTTTTAT is 0.999 ± 0.058; for GGGATCTACG it is 1.04 ± 0.026.

For the sequence ACGGGGAAGG, the switch fluorescence ratio is 1.03 ± 0.035. For the sequence GGATGTGGGT, the switch fluorescence ratio is 1.011 ± 0.0037.

Turning to CTTACGGGGT, the switch fluorescence ratio is 1.1 ± 0.093. In the case of ACGCGCCTGG it was 1.05 ± 0.043; in that of TGGGGCAAGG, 1.04 ± 0.031; in that of TATAAAAGTC, 0.992 ± 0.023. The figure for GCGATAAGAT is 1.0048 ± 0.00093; for AATAAAATT it is 1.03 ± 0.076; for AAAGCGTGGA it is 1 ± 0.011. With TCGGGGAGTT, the switch fluorescence ratio came out at 0.982 ± 0.021. Consider CATGGCGAAG, for which the switch fluorescence ratio came to 1 ± 0.034.

As for TTCAAACGAG, the switch fluorescence ratio came to 1.01 ± 0.031.

For AAATGAATTT, the switch fluorescence ratio stood at 0.976 ± 0.014. In the case of AGTTTCGGTA, the switch fluorescence ratio was 0.977 ± 0.018. As for GGGGGTTGTG, the switch fluorescence ratio was found to be 1 ± 0.036. In the case of AACCAGTGGC, the switch fluorescence ratio worked out at 1.06 ± 0.079. Consider AACCTGGGGT, for which the switch fluorescence ratio was found to be 1.02 ± 0.0073.

For the sequence ACGATGTACT, the switch fluorescence ratio is 1.1 ± 0.013.

Consider AGAAATAGGA, for which the switch fluorescence ratio was 1.01 ± 0.035. In the case of TTAGAAGTGG it was 0.988 ± 0.025; in that of ATGTAGCATT, 1.21 ± 0.0026; in that of TGGTCGGTCT, 1.07 ± 0.074. As to CAATAGGCAG, the switch fluorescence ratio is 0.9824 ± 0.0053. Take CGTTTTTGAA: the switch fluorescence ratio stood at 0.99 ± 0.025. In the case of TTGAAATAAT, the switch fluorescence ratio worked out at 1.1 ± 0.14. On to GGGTTGAGTT, for which the switch fluorescence ratio was determined as 0.9849 ± 0.0035. For AGTTCATATA, the switch fluorescence ratio turned out to be 1.013 ± 0.0011.
